Experimental data reported in patent US20180273595A1.

T1: recombinant His-tagged full-length ERG, P11308
T1 chain: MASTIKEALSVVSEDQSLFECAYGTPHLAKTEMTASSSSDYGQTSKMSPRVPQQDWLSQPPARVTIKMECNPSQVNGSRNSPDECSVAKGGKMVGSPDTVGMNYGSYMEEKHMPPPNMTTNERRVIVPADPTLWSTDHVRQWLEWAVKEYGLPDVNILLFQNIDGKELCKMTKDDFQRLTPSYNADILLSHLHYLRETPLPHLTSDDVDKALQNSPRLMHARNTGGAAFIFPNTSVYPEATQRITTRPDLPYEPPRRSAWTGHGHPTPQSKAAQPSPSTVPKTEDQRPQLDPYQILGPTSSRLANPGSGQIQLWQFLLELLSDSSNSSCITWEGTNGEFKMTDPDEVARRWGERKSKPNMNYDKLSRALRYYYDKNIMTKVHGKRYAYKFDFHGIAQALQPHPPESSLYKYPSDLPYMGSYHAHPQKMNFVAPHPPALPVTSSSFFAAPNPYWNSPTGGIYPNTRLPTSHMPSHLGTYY


Target: T1, recombinant His-tagged full-length ERG, …
Test: OctetRED BLI

Row | Binder | Kd [nM]
1 | GRRRQRRKKRGGPLSGFSL (modifications not checked) [RI-EIP2 retroinverso peptidomimetic] | 1280
2 | GRRRQRRKKRGGTFLYPPL (modifications not checked) [RI-EIP1 retroinverso peptidomimetic] | 940
